We go through 10 molecules from US20230030674A1 (SOTIO BIOTECH A S, published 2023).

The labels stand for the following.
B1: hGBA-1 (antibody, human IgG1, kappa, V domains shown)
VH: EVQLVQSGAEVKKPGESLKISCKGSGYSFTSYWIGWVRQMPGKGLEWMGNIYPGASDTRYAPSFQGQVTISADKSISTAYLQWSSLKASDTAMYYCARLWRGNSFDYWGQGTLVTVSS
VL: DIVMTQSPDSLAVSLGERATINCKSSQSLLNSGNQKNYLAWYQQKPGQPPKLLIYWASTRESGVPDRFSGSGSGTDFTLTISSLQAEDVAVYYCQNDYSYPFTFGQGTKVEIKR
notes: Humanized IgG1; X and chain(s) not specified, so tags not built in
B2: hGBA-9 (antibody, human IgG1, kappa, V domains shown)
VH: B1 VH with S28T, N50I, G54S, S56A, D57Y, A97T, L99M
VL: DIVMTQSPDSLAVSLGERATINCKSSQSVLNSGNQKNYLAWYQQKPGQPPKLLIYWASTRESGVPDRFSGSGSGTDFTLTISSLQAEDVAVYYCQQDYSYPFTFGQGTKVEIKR
notes: as for B1
B3: hGBA-2 (antibody, human IgG1, kappa, V domains shown)
VH: B1 VH with A55D, S56A, L99M
VL: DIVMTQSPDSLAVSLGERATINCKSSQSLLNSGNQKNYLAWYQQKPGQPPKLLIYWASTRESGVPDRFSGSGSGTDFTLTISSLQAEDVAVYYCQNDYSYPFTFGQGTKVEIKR
notes: as for B1
B4: hGBA-4 (antibody, human IgG1, kappa, V domains shown)
VH: B1 VH with N50I, A55D, S56A, D57Y, A61S, A97T, Y107A
VL: DIVMTQSPDSLAVSLGERATINCKSSQSLLNSGNQKNYLTWYQQKPGQPPKLLIYWASTRESGVPDRFSGSGSGTDFTLTISSLQAEDVAVYYCQNDYSYPLTFGQGTKVEIKR
notes: as for B1
B5: hGBA-7 (antibody, human IgG1, kappa, V domains shown)
VH: B1 VH with A55E, S56A, D57Y, A61S, A97T
VL: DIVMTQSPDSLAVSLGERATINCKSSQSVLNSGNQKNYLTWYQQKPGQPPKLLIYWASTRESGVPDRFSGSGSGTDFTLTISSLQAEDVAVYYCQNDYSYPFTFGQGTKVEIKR
notes: as for B1
B6: hGBA-6 (antibody, human IgG1, kappa, V domains shown)
VH: B1 VH with S28T, D57Y, A61S, A97T, L99Q
VL: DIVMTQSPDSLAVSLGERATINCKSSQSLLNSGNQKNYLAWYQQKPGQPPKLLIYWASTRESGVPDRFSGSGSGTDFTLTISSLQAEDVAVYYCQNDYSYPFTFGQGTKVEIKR
notes: as for B1
B7: hGBA-3 (antibody, human IgG1, kappa, V domains shown)
VH: B1 VH with N50I, R59N, L99I
VL: B4 VL with T40A
notes: as for B1
B8: hGBA-8 (antibody, human IgG1, kappa, V domains shown)
VH: B1 VH with G54S, A55E, D57Y, R59N, A97T
VL: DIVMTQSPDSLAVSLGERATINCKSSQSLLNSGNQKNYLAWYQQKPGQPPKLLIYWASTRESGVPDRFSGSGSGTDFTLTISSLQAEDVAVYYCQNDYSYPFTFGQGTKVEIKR
notes: as for B1
B9: hGBA-5 (antibody, human IgG1, kappa, V domains shown)
VH: B1 VH with N50I, S56A, D57Y
VL: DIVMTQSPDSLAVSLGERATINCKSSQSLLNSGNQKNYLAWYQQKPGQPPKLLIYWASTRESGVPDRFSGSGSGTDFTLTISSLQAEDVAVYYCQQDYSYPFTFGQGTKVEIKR
notes: as for B1
B10: IMAB362 (antibody, human IgG1, kappa, V domains shown)
VH: QVQLQQPGAELVRPGASVKLSCKASGYTFTSYWINWVKQRPGQGLEWIGNIYPSDSYTNYNQKFKDKATLTVDKSSSTAYMQLSSPTSEDSAVYYCTRSWRGNSFDYWGQGTTLTVSS
VL: DIVMTQSPSSLTVTAGEKVTMSCKSSQSLLNSGNQKNYLTWYQQKPGQPPKLLIYWASTRESGVPDRFTGSGSGTDFTLTISSVQAEDLAVYYCQNDYSYPFTFGSGTKLEIKR
notes: X and which chain(s) are not specified, so the tags are not built in; also called Claudiximab; Zolbetuximab

Residue numbers refer to the chain shown, from its start.

The first experiment has as its target T1, huCLDN18.2 (human, UniProt P56856-2 1-261).
T1 construct: whole, on cells; Full-length huCLDN18.2 stably overexpressed in HEK293T cells (pPB-Puro-huCldn18.2); also called human CLDN18.2
Briefly: flow cytometry titration on HEK293T cells overexpressing CLDN18.2. (A flow cytometer gives signals particle by particle.)
Protocol: (§1) A PE-coupled secondary anti-human IgG antibody was added to the cells for additional 30 min at 4° C. after washes with the FACS buffer, followed by further washes with FC buffer. The cells were then resuspended in 100 μl FC buffer and measured with a FACSCalibur™ cell analyzer (BD Biosciences, USA).
B1: the EC50 was determined as 0.259 µg/mL and the “Max MFI” value came to 3030 MFI.
The matching figures for B2: 0.241 µg/mL and 3120 MFI.
With B3, a half-maximal response (EC50) required 0.249 µg/mL and the “Max MFI” value stood at 2970 MFI.
With B4, the midpoint of the response, the EC50, lay at 0.357 µg/mL and the “Max MFI” value turned out to be 2790 MFI.
The corresponding values for B5 are 0.42 µg/mL and 3250 MFI.
The corresponding values for B6 are 0.257 µg/mL and 2890 MFI.
The corresponding values for B7 are 0.273 µg/mL and 2750 MFI.
As to B8, the EC50 is 0.187 µg/mL and the “Max MFI” value was 2700 MFI.
Regarding B9, the EC50 came out at 0.305 µg/mL and the “Max MFI” value was 3320 MFI.
With B10, the EC50 amounted to 0.388 µg/mL and the “Max MFI” value is 1970 MFI.

A further experiment addresses T1, huCLDN18.2. Briefly: flow cytometry titration on PA-TU-8988S-High cells (endogenous CLDN18.2).
Protocol: as §1
B1: the EC50 was 0.444 µg/mL and the “Max MFI” value was found to be 2530 MFI.
The matching figures for B2: 0.286 µg/mL and 2440 MFI.
The corresponding values for B3 are 0.584 µg/mL and 2400 MFI.
The matching figures for B4: 0.412 µg/mL and 2010 MFI.
For B5, the EC50 came to 0.323 µg/mL and the “Max MFI” value stood at 2320 MFI.
The matching figures for B6: 0.191 µg/mL and 2240 MFI.
Regarding B7, the midpoint of the response, the EC50, lay at 0.352 µg/mL and the “Max MFI” value turned out to be 2160 MFI.
The corresponding values for B8 are 0.303 µg/mL and 2370 MFI.
The matching figures for B9: 0.159 µg/mL and 2560 MFI.
The matching figures for B10: 0.508 µg/mL and 1050 MFI.

As usually defined, the EC50 is the concentration giving half of the maximal effect. High values mean lower potency in that assay, low ones higher potency in that assay.
